Molecular target: spike (trimeric, Wuhan) (SARS-CoV-2, UniProt P0DTC2)

B1: fibrin (protein)
chain 1: ADSGEGDFLAEGGGVR
chain 2: QGVNDNEEGFFSAR
chain 3: YVATRDNCCILDERFGSYCPTTCGIADFLSTYQTKVDKDLQSLEDILHQVENKTSEVKQLIKAIQLTYNPDESSKPNMIDAATLKSRKMLEEIMKYEASILTHDSSIRYLQEIYNSNNQKIVNLKEKVAQLEAQCQEPCKDTVQIHDITGKDCQDIANKGAKQSGLYFIKPLKANQQFLVYCEIDGSGNGWTVFQKRLDGSVDFKKNWIQYKEGFGHLSPTGTTEFWLGNEKIHLISTQSAIPYALRVELEDWNGRTSTADYAMFKVGPEADKYRLTYAYFAGGDAGDAFDGFDFGDDPSDKFFTSHNGMQFSTWDNDNDKFEGNCAEQDGSGWWMNKCHAGHLNGVYYQGGTYSKASTPNGYDNGIIWATWKTRWYSMKKTTMKIIPFNRLTIGEGQQHHLGGAKQVRPEHPAETEYDSLYPEDDL
**Q.** For B1, which Kd is on record?
**A.** Its Kd is 390 nM.
